Assay [1] deals with T1, human LAG-3-Fc fusion (human LAG-3 extracellular domain fused to human IgG1 Fc fragment, R&D Systems) (human, UniProt P18627 23-450, biotinylated in Example 5 (sites not given)).
T1 construct: extracellular domain; also called huLAG-3-Fc; biotinylated human LAG-3-Fc; not shown: human IgG1 Fc fragment
T1 sequence (looked up): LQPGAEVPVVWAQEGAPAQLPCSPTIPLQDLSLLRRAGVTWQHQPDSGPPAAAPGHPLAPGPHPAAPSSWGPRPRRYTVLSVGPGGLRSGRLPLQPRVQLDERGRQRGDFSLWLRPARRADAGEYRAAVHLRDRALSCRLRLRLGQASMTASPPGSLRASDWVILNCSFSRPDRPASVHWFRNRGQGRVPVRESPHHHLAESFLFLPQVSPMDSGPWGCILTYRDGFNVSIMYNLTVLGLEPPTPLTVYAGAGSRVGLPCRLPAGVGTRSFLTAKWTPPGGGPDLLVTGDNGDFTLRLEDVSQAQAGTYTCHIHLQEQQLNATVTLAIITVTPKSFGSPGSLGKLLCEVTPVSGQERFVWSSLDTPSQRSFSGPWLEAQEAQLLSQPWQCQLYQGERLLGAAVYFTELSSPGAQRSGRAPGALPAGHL
In words: dual-binding ELISA: PD-1-His coated, antibody titrated from 250 nM, then biotinylated huLAG-3-Fc 2 ug/mL, detection Extravidin-HRP, RFU. As for the experimental part: The plates were washed five times after each incubation step with 100 μL PBS-0.05% T. The plates were blocked with 2% BSA (w/v) in PBS-0.1% T for 1 h at room temperature and subsequently washed again. Different concentrations of the fusion polypeptides were added to the wells and incubated for 1 h at room temperature, followed by a wash step. […] After an additional wash step, fluorogenic HRP substrate (QuantaBlu, Thermo) was added to each well and the fluorescence intensity was detected using a fluorescence microplate reader.
For orientation: An ELISA detects its analyte on a solid surface through an enzyme-linked reagent.

The target of assay [2] is T2, human LAG-3-His (LAG-3 with C-terminal polyhistidine tag, ACROBiosystems) (human, UniProt P18627 23-450).
T2 construct: Bought protein; also called recombinant LAG-3-His
T2 sequence (looked up): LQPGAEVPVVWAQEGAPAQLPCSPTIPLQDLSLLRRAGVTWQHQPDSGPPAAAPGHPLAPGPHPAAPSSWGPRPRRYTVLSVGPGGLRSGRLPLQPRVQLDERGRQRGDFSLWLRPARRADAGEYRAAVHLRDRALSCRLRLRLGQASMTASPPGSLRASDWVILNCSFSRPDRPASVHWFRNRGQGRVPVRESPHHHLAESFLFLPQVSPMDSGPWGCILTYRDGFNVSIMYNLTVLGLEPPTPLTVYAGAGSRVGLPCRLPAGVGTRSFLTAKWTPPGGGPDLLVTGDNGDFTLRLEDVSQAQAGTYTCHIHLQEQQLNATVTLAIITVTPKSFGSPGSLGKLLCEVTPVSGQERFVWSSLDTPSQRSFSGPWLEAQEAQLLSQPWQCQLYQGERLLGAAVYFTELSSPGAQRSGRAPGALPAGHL
In words: ELISA: LAG-3-His coated, detection anti-Tlc antibody-HRP (an antibody without lipocalin part would not be seen by this detection; see Figure 3C for anti-Fc detection).

B1: PD-1 specific benchmark antibody (SEQ ID NOs: 3 and 4) (antibody, human IgG4 S228P, kappa, V domains shown)
VH: QVQLVESGGGVVQPGRSLRLDCKASGITFSNSGMHWVRQAPGKGLEWVAVIWYDGSKRYYADSVKGRFTISRDNSKNTLFLQMNSLRAEDTAVYYCATNDDYWGQGTLVTVSS
VL: EIVLTQSPATLSLSPGERATLSCRASQSVSSYLAWYQQKPGQAPRLLIYDASNRATGIPARFSGSGSGTDFTLTISSLEPEDFAVYYCQQSSNWPRTFGQGTKVEIKR
notes: Engineered IgG4 backbone with the S228P mutation; also called PD-1-specific antibody
For the molecule B1, the binding result in assay [1] and in assay [2] was “no binding (tested: 250 nM)” throughout.

These data come from patent US20190010231A1 (Pieris, published 2019).
